Data taken from US20170189504A1.

Target: HLA-A*24 (human)
Test: UV-ligand exchange, anti-b2m ELISA

Binder | peptide exchange yield
VYGFQWRHF [SEQ ID NO: 276 peptide …] | > 75%
NYINRILKL [SEQ ID NO: 167 peptide …] | > 75%
AYTLIAPNI [SEQ ID NO: 169 peptide …] | 50 to 75%
IYLVSIPEL [SEQ ID NO: 161 peptide …] | > 75%
TYLRDQHFL [SEQ ID NO: 187 peptide …] | > 75%
RYSTGLAGNLL [SEQ ID NO: 221 peptide …] | 50 to 75%
TYIKPISKL [SEQ ID NO: 273 peptide …] | 50 to 75%
RYPDNLKHLYL [SEQ ID NO: 280 peptide …] | > 75%
IFLDYEAGTLSF [SEQ ID NO: 227 peptide …] | > 75%
RYFKGLVF [SEQ ID NO: 188 peptide RYFKGLVF] | 50 to 75%
VFQNFPLLF [SEQ ID NO: 184 peptide …] | > 75%
TYIESASEL [SEQ ID NO: 279 peptide …] | 50 to 75%
KYTSWYVAL [SEQ ID NO: 228 peptide …] | > 75%
FFPPTRQMGLLF [SEQ ID NO: 217 peptide …] | > 75%
TYTQDFNKF [SEQ ID NO: 208 peptide …] | 50 to 75%
EFGSLHLEFL [SEQ ID NO: 194 peptide …] | < 20%
IYQLDTASI [SEQ ID NO: 182 peptide …] | 50 to 75%
VYVSDIQEL [SEQ ID NO: 288 peptide …] | 50 to 75%
VYPWLGALL [SEQ ID NO: 177 peptide …] | > 75%
IYKVGAPTI [SEQ ID NO: 185 peptide …] | 50 to 75%
VFTRVSSFL [SEQ ID NO: 162 peptide …] | 50 to 75%
DYLKGLASF [SEQ ID NO: 163 peptide …] | > 75%
KFVDSTFYL [SEQ ID NO: 282 peptide …] | > 75%
TYTTVPRVAF [SEQ ID NO: 172 peptide …] | > 75%
AYLHSHALI [SEQ ID NO: 274 peptide …] | > 75%

Binder | peptide exchange yield
RYPDNLKHL [SEQ ID NO: 286 peptide …] | 20 to 49%
LYLDKATLI [SEQ ID NO: 198 peptide …] | 50 to 75%
KYPVEWAKF [SEQ ID NO: 289 peptide …] | > 75%
YYLEVGKTLI [SEQ ID NO: 211 peptide …] | > 75%
EYSLFPGQVVI [SEQ ID NO: 197 peptide …] | 50 to 75%
IFIEVFSHF [SEQ ID NO: 178 peptide …] | 50 to 75%
VYVGGGQIIHL [SEQ ID NO: 174 peptide …] | 50 to 75%
VHIPEVYLI [SEQ ID NO: 205 peptide …] | 50 to 75%
QYSSVFKSL [SEQ ID NO: 216 peptide …] | > 75%
SYALLTYMI [SEQ ID NO: 192 peptide …] | > 75%
KFSSFSLFF [SEQ ID NO: 164 peptide …] | 50 to 75%
QYLQDAYSF [SEQ ID NO: 272 peptide …] | > 75%
YYVYIMNHL [SEQ ID NO: 225 peptide …] | 50 to 75%
YYVESGKLF [SEQ ID NO: 166 peptide …] | > 75%
TYSVSFPMF [SEQ ID NO: 195 peptide …] | > 75%
LYLKLWNLI [SEQ ID NO: 214 peptide …] | 50 to 75%
LYIDRPLPYL [SEQ ID NO: 196 peptide …] | 50 to 75%
GFFIFNERF [SEQ ID NO: 190 peptide …] | 50 to 75%
LFIPSSKLLFL [SEQ ID NO: 171 peptide …] | 50 to 75%
EYNQWFTKL [SEQ ID NO: 176 peptide …] | 50 to 75%
QYLENLEKL [SEQ ID NO: 224 peptide …] | 50 to 75%
EYQENFLSF [SEQ ID NO: 206 peptide …] | 50 to 75%
DYTTWTALL [SEQ ID NO: 165 peptide …] | > 75%
EYPLVINTL [SEQ ID NO: 219 peptide …] | 50 to 75%
KYQDILETI [SEQ ID NO: 168 peptide …] | > 75%

Binder | peptide exchange yield
VYEDQVGKF [SEQ ID NO: 170 peptide …] | 20 to 49%
RYISDQLFTNF [SEQ ID NO: 278 peptide …] | > 75%
EYINQGDLHEF [SEQ ID NO: 275 peptide …] | 50 to 75%
KYIPYKYVI [SEQ ID NO: 223 peptide …] | 50 to 75%
VFKASKITF [SEQ ID NO: 191 peptide …] | 50 to 75%
MYDSYWRQF [SEQ ID NO: 179 peptide …] | > 75%
VYTLDIPVL [SEQ ID NO: 160 peptide …] | > 75%
VYRDETGELF [SEQ ID NO: 226 peptide …] | 50 to 75%
IYSWILDHF [SEQ ID NO: 173 peptide …] | > 75%
TYGDAGLTYTF [SEQ ID NO: 283 peptide …] | 50 to 75%
IYDDSFIRPVTF [SEQ ID NO: 180 peptide …] | 50 to 75%
VFTSTARAF [SEQ ID NO: 183 peptide …] | 50 to 75%
KYMVYPQTF [SEQ ID NO: 267 peptide …] | > 75%
IYTMIYRNL [SEQ ID NO: 210 peptide …] | > 75%
YYEVHKELF [SEQ ID NO: 175 peptide …] | > 75%
RYLNKAFHI [SEQ ID NO: 284 peptide …] | 50 to 75%
LYHDIFSRL [SEQ ID NO: 271 peptide …] | > 75%
IFPQFLYQF [SEQ ID NO: 186 peptide …] | > 75%
WYVNGVNYF [SEQ ID NO: 189 peptide …] | 20 to 49%
FYSRLLQKF [SEQ ID NO: 203 peptide …] | 50 to 75%
LYNKGFIYL [SEQ ID NO: 159 peptide …] | > 75%
RFHPTPLLL [SEQ ID NO: 193 peptide …] | > 75%
HYSQELSLLYL [SEQ ID NO: 158 peptide …] | > 75%
LYLDIINLF [SEQ ID NO: 181 peptide …] | > 75%
YFDKVVTL [SEQ ID NO: 215 peptide YFDKVVTL] | 20 to 49%
